Reference: paper doi:10.1101/2025.01.30.635804, “Emergence of specific binding and catalysis from a designed generalist binding protein” (bioRxiv, 2025)
Substitutions are numbered along the chain they refer to. In names and notes the source's numbering stands.

B1: tKSI: Natural enzyme; ref 68 (protein, UniProt P00947 1-125, looked up)
Steroid Delta-isomerase: MNTPEHMTAVVQRYVAALNAGDLDGIVALFADDATVEDPVGSEPRSGTAAIREFYANSLKLPLAVELTQEVRAVANEAAFAFTVSFEYQGRKTVVAPIDHFRFNGAGKVVSMRALFGEKNIHAGA
B2: D38N tKSI: Single mutation of tKSI; ref 68 (protein, UniProt P00947 1-125, looked up, variant D38N)
Steroid Delta-isomerase: B1 Steroid Delta-isomerase with D38N

Assay: Kinetic parameters of reported proteins catalyzing the Kemp elimination (literature)
Assay type: biochemical
Conditions: literature kcat/KM (M-1s-1) divided by total number of amino acids
Source text: Extended Data Table 4 çKinetic parameters of reported proteins catalyzing the Kemp elimination of 5-nitrobenzisoxazole with base-mediated mechanism.
Protein Description kcat/KM, kcat, KM, Amino Ref
AlleyCat Single mutation of 5.8 ND ND 0.08 64
Lysozyme Double mutation of 1.8 ND ND 0.01 138 […]

Molecule | Amino acid efficiency
B1 | 0.02
B2 | 140
